The values below come from US20030045470A1.

This assay has as its target Gal4 DBD-COUP-TF fusion protein (yeast) (UniProt P04386). The experiment in a line: cell-based or functional assay.

As to “PGC-1 (expressed from pCMV-PGC-1 in transfected cells) (from UniProt O70343 1-797)”, the PGC-1 mediated activation of mutant PEPCK promoter-luciferase constructs (% of that achieved by HNF-4α) was in the range of 20 to 30.
